Laboratory results from PMC12667839.

Biological target: T1, GST-FOXL2-FHD (UniProt O88470 48-144)
T1 sequence: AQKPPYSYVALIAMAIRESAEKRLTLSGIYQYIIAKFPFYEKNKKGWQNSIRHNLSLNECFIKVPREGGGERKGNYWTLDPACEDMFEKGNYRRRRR
Test: EMSA

B1: Enh 3 wt (SBE/FBE1&2) (dsDNA)
DNA 1: GCCTTGATGTGTCTGGCTCAGAGCTGGCTAGAAGGCCAAGGCTATATGC
DNA 2: GCATATAGCCTTGGCCTTCTAGCCAGCTCTGAGCCAGACACATCAAGGC
B1: no binding.
